# Data: paper doi:10.1101/2021.09.03.458953
# Read-outs that look alike come from different tables or passages of the source.
# How the values were obtained:
# [1] = molecular target: Sarbecovirus (SARS-CoV-2 / SARS-CoV) spike C-terminal hepta-peptide, wild type (UniProt P0DTC2); details: pH 6.5; 25°C; 150 mM NaCl
# [2] = molecular target: Sarbecovirus (SARS-CoV-2 / SARS-CoV) spike C-terminal hepta-peptide, wild type (UniProt P0DTC2); details: pH 7.5; 25°C; 150 mM NaCl
# [3] = molecular target: Sarbecovirus (SARS-CoV-2 / SARS-CoV) spike C-terminal hepta-peptide, wild type (UniProt P0DTC2); details: pH 7.5; 25°C; 150 mM NaCl; remark: listed apart in the source
substance,measurement,setting,value
Coatomer subunit alpha N-terminal WD40 domain (alphaCOPI-WD40) L181K;L185K;I192K;L196K;F197K,equilibrium KD,[1],1.40 ± 0.15 µM
same,kinetic KD,[2],2.75 ± 0.09 µM
same,equilibrium KD,[3],4.17 ± 0.04 µM
